Patent US20040152079A1 (Scripps Research, published 2004)

B2: human mini TyrRS (ligand)
chain: MGDAPSPEEKLHLITRNLQEVLGEEKLKEILKERELKIYWGTATTGKPHVAYFVPMSKIADFLKAGCEVTILFADLHAYLDNMKAPWELLELRVSYYENVIKAMLESIGVPLEKLKFIKGTDYQLSKEYTLDVYRLSSVVTQHDSKKAGAEVVKQVEHPLLSGLLYPGLQALDEEYLKVDAQFGGIDQRKIFTFAEKYLPALGYSKRVHLMNPMVPGLTGSKMSSSEEESKIDLLDRKEDVKKKLKKAFCEPGNVENNGVLSFIKHVLFPLKSEFVILRDEKWGGNKTYTAYVDLEKDFAAEVVHPGDLKNSVEVALNKLLDPIREKFNTPALKKLASAAYPDPSKQKPMAKGPAKNSEPEEVILEHHHHHH
modifications: Radioiodinated (125I) where used as the labelled ligand; iodinated residues not stated. Runs as a homodimer on gel filtration.
notes: Recombinant, made in E. coli

Tests used:
human mini TyrRS = target: B2; assay: radioligand binding (Scatchard) to RBL2H3 cells transfected with the type A IL-8 receptor
Method: Following incubation, cells were separated from unbound radioactivity as described herein.
Untransfected RBL2H3 cells express neither the type A nor type B receptors.

[1] = target: PMN receptor for mini TyrRS (on human PMNs) (human); assay: Scatchard analysis of ^125I-mini TyrRS binding to human PMNs at 4 C
From the text: The supernatant was aspirated, and the cell sediment was resuspended using EcoLite (ICN Biomedicals, Irvine, Calif.) and analyzed in a scintillation counter.

B1: type A IL-8 receptor (receptor, UniProt P25024 1-350, looked up)
chain: MSNITDPQMWDFDDLNFTGMPPADEDYSPCMLETETLNKYVVIIAYALVFLLSLLGNSLVMLVILYSRVGRSVTDVYLLNLALADLLFALTLPIWAASKVNGWIFGTFLCKVVSLLKEVNFYSGILLLACISVDRYLAIVHATRTLTQKRHLVKFVCLGCWGLSMNLSLPFFLFRQAYHPNNSSPVCYEVLGNDTAKWRMVLRILPHTFGFIVPLFVMLFCYGFTLRTLFKAHMGQKHRAMRVIFAVVLIFLLCWLPYNLVLLADTLMRTQVIQESCERRNNIGRALDATEILGFLHSCLNPIIYAFIGQNFRHGFLKILAMHGLVSKEFLARHRVTSYTSSSVNVSSNL
notes: whole, on cells; also called IL-8 receptor type A; CXCR1
- Kd (human mini TyrRS): 8 nM

Binder: B2
- Kd [1]: 21 nM
